Measurements published in patent US7642244 (Hoffmann-La Roche, dated 2010).
Starred links: 1 amine or outer side, 2 acyl side, 3 side chain; linkers in the order of their positions; H or OH if unused. Non-standard residues stand in square brackets, D forms with d. Primed or numbered codes have the meaning given here. *: point of attachment. Pqa = 4-oxo-6-(1-piperazinyl)-3(4H)-quinazoline-acetic acid, O=C(Cn1cnc2ccc(N3CCN([*:1])CC3)cc2c1=O)[*:2]; Adamantane1carbonyl = O=C(C12CC3CC(CC(C3)C1)C2)*; PEG30,000 SSA″ = PEG-CH2CH2NHCOCH2CH2CO-; PEG30,000 SPA = (PEG-30,000)CH2CH2CO; NMeR = CN[C@@H](CCCNC(=N)N)C(=O)O

T1: Y5R
T1 sequence (Q15761 whole entry, species assumed, looked up): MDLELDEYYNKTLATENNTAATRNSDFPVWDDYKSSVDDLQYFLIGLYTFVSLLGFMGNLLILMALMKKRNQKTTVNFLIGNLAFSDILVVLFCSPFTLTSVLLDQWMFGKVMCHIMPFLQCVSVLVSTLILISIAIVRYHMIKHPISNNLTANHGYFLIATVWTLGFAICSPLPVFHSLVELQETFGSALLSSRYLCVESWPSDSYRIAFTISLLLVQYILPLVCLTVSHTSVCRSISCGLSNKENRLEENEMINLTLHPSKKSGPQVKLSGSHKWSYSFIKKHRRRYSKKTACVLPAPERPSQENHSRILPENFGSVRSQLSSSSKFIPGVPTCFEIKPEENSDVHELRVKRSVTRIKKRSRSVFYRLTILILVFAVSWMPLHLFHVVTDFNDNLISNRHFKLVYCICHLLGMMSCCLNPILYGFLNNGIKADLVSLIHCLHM

T2: human NPY2 receptor (human, UniProt P49146 1-381)
T2 sequence (looked up): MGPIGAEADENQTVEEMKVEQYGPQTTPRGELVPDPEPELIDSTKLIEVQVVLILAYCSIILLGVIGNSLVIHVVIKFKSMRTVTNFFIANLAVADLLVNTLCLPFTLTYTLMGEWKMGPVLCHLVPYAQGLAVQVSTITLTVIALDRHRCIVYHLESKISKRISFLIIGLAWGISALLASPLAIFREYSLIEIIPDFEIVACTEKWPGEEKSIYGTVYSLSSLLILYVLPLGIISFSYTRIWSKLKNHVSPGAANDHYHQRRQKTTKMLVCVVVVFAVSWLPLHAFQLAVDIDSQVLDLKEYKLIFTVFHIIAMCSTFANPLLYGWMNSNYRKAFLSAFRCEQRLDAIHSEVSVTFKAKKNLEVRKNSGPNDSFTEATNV

B1: H-Ile-Lys-Pqa-Arg-His-Tyr-Leu-Asn-Leu-Val-Thr-Arg-Gln-NMe)Arg-Trp-NH2 (peptide)
peptide: IKXRHYLNLVTRQRW
HELM: PEPTIDE1{I.K.[O=C(Cn1cnc2ccc(N3CCN([*:1])CC3)cc2c1=O)[*:2]].R.H.Y.L.N.L.V.T.R.Q.[meR].W.[am]}$$$$V2.0
SMILES: CC[C@H](C)[C@H](N)C(=O)N[C@@H](CCCCN)C(=O)N1CCN(c2ccc3ncn(CC(=O)N[C@@H](CCCNC(=N)N)C(=O)N[C@@H](Cc4c[nH]cn4)C(=O)N[C@@H](Cc4ccc(O)cc4)C(=O)N[C@@H](CC(C)C)C(=O)N[C@@H](CC(N)=O)C(=O)N[C@@H](CC(C)C)C(=O)N[C@H](C(=O)N[C@H](C(=O)N[C@@H](CCCNC(=N)N)C(=O)N[C@@H](CCC(N)=O)C(=O)N(C)[C@@H](CCCNC(=N)N)C(=O)N[C@@H](Cc4c[nH]c5ccccc45)C(N)=O)[C@@H](C)O)C(C)C)c(=O)c3c2)CC1

Assays:
Assay in all cases: cell-based or functional assay
Y5R = molecular target: T1, Y5R
Y4R = molecular target: Y4R
human NPY2 receptor = molecular target: T2, human NPY2 receptor
Y1R = molecular target: Y1R
Y1R, sequence (P25929 whole entry): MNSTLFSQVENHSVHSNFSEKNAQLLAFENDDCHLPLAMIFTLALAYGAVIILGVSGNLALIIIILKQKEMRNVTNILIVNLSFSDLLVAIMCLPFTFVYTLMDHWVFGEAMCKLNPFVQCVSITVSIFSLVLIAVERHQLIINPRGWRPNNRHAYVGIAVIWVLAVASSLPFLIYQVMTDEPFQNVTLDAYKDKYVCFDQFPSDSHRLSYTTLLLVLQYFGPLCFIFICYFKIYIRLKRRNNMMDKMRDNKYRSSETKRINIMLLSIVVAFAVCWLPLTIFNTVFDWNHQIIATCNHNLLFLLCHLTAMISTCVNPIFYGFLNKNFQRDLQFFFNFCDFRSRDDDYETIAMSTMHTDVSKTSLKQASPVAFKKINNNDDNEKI

Row | Binder | Y5R EC50 (nM) FLIPR (Y5R) [nM] | Y4R EC50 (nM) FLIPR (Y4R) [nM] | Y2R EC50 (nM) FLIPR (human NPY2 receptor) [nM] | Y2R EC50 (nM) cAMP (human NPY2 receptor) [nM] | Y1R EC50 (nM) FLIPR (Y1R) [nM]
1 | B1 | > 5000 | > 5000 | 0.454 | 1.06 | > 5000
2 | Ac-IK(PEG30,000 SPA)[Pqa]RHYLNWVTRQ[NMeR]Y-NH2 [Ac-Ile(PEG-30,000)CH2CH2CO(ε)Lys-Pqa-Arg-His-Tyr-Leu-Asn-Trp-Val-Thr-Arg-Gln-(NMe)Arg-Tyr-NH2] | > 5000 | > 5000 | 549 | 24.4 | > 5000
3 | Ac-IK(PEG30,000 SSA″)[Pqa]RHYLNWVTRQ[NMeR]Y-NH2 | > 5000 | > 5000 | 1080 | 20.7 | > 5000
4 | Adamantane1carbonyl-IK[Pqa]RHYLNWVTRQ[NMeR]Y-NH2 [Adamantoyl-Ile-Lys-Pqa-Arg-His-Tyr-Leu-Asn-Trp-Val-Thr-Arg-Gln-(NMe)Arg-Tyr-NH2] | > 5000 | > 5000 | 2.33 | 2.9 | > 5000
